One assay has as its system sciatic nerve crush mice. The assay can be described thus: Neuropathy induced by sciatic nerve crush, electrophysiological recording (CMAP). The class given is in vivo, mouse. The protocol:
[…] 8 week-old females C57bl/6 RJ mice (Elevage Janvier, Le Genest-St-Isle, France) were used. They were divided into 6 groups (n=6): • (a) nerve crush/Vehicle (Saline/0.02% BSA); • (b) nerve crush/SDF-1α (3 μg/kg); • (c) nerve crush/SDF-1α (10 μg/kg); • (d) nerve crush/SDF-1α (30 μg/kg); • (e) nerve crush/SDF-1α (100 μg/kg); • (f) nerve crush/IL-6 (30 μg/kg).
The animals were anaesthetized by inhalation of 3% Isoflurane (Baxter). The right sciatic nerve was surgically exposed at mid thigh level and crushed at 5 mm proximal to the trifurcation of the sciatic nerve. The nerve was crushed twice for 30s with a haemostatic forceps (width 1.5 mm; Koenig; Strasbourg; France) with a 90-degree rotation between each crush.
Electromyographical (EMG) testing was performed once before the surgery day and each week during 3 weeks following the operation.
The day of nerve crush surgery was considered as dpl 0 (dpl=day post lesion). No test was performed during the 4 days following the crush.
From the day of nerve injury to the end of the study, SDF-1α, IL-6 or Vehicle were administered daily by subcutaneous injections (s.c.) route, 5 days per week.
Electrophysiological recordings were performed using a Neuromatic 2000M electromyograph (EMG) (Dantec, Les Ulis, France). Mice were anaesthetized by inhalation of 3% Isofluran® (Baxter). The normal body temperature was maintained using a heated operating table (Minerve, Esternay, France).
Compound muscle action potential (CMAP) was measured in the gastrocnemius muscle after a single 0.2 ms stimulation of the sciatic nerve at a supramaximal intensity (12.8 mA). The amplitude (mV) and the latency (ms) of the action potential were measured on the operated leg. The measures was also registered on the contralateral (uncrushed) leg of Vehicle treated animals (Baseline). The amplitude is indicative of the number of active motor units, while the distal latency indirectly reflects motor nerve conduction and neuromuscular transmission velocities, which depends in part on the degree of myelination.
Global analysis of the data was performed using one-way ANOVA. Dunnett's test was used further, and data were compared to the “vehicle” control. The level of significance was set at a: p<0.001; b or **: p<0.01; c or *: p<0.05; d: p<0.1. The results were expressed as mean ±standard error of the mean (s.e.m.).
The sciatic nerve crush model described in Example 4 above was carried out to test SDF-1α variant as defined in SEQ ID NO: 4 and the mice were divided into the following 2 groups (n=6):
The SDF-1α variant used in this example and encoded by SEQ ID NO: 4 was expressed with an additional N terminal Methionine. The CMAP duration (time needed for a depolarization and a repolarization session) was also recorded.
The sciatic nerve crush model described in Example 4 above was carried out to test Met-SDF-1α (as defined in SEQ ID NO: 7) and the mice were divided into the following 2 groups (n=6):
(b) nerve crush/Met-SDF-1α variant at 100, 30, and 10 μg/kg s.c.

In assay [1] the test system is primary mixed cortical cultures stimulated with LPS. In words: Cytokine release (TNF-α, IL-6) from LPS stimulated primary mixed cortical cultures. It counts as cell-based, mouse. Particulars: for levels of IL-6 secretion / levels of TNF-α secretion: pre-incubation 3 h (SDF proteins 0.001, 0.1, 10 ng/ml; IL-10 10 ng/ml; dexamethasone 25 pM), then LPS 5 ng/ml 48 h, ELISA, compared to untreated cells. The protocol: Culturing of primary cells was performed as described (Lubetzki et al., 1993) using brain tissue from embryos isolated from NMRI mice at 16 days post-coitum. Cerebral hemispheres were dissected from embryo brains, dissociated via trypsin digestion and the single cell suspension was seeded at 5×10^4 cells in 50 μl myelination medium per well onto BioCoat® poly-L-lysine coated 96-well plates (356516, Becton Dickinson). The myelination medium consisted of Bottenstein-Sato medium (Bottenstein and Sato, 1979; Sadir et al., 2001), supplemented with 1% FCS, 1% penicillin-streptomycin solution (Seromed) and recombinant platelet-derived growth factor AA (PDGF-AA, R&D Systems) at 10 ng/mL.
For testing the effects of SDF-1α and SDF-1α variant (as defined in SEQ ID NO: 4) on LPS stimulated cultures, cells were allowed to grow for two weeks. At day 14 cells were pre-incubated with increasing concentrations (0.001, 0.1 and 10 ng/ml) of the corresponding proteins into 25 μl of medium for three hours at 37° C. and 10% CO2. LPS was then supplemented to the cells at the concentration of 5 ng/ml into 25 μl of medium to obtain a final volume of 100 μl and incubated for 48 hours. Supernatants were collected at day 16 and the levels of TNF-α and IL-6 (the major cytokines released by activated microglia) were measured via specific ELISAs purchased from R&D systems (DuoSet mouse TNF-α ELISA DY410, mouse IL-6 ELISA DY406).
Global analysis of the data was performed using one-way ANOVA. Dunnett's test was used further, and data were compared to the “untreated cells”. The level of significance was set at a: p<0.001; b or **: p<0.01; c or *: p<0.05; d: p<0.1. The results were expressed as mean ±standard error of the mean (s.e.m.).
Background: ELISA stands for enzyme-linked immunosorbent assay.

Assay [2] deals with leukocytes recruited in the peritoneal cavity. In words: In vivo model of peritoneal cell recruitment. The arrangement: species or system mouse. Particulars: 4 μg i.p. in Balb/C mice, 4 hours post injection. The protocol:
8-12 week old, female Balb/C mice (Janvier, France) were injected intra peritoneally (i.p.) with 200 μl NaCl (0.9%, LPS free) or chemokine 4 μg (WT SDF-1α or SDF-1α variant according to SEQ ID NO:4 diluted in 200 μl NaCl (0.9%, LPS free). […] of WT or mutant SDF-1α, mice were sacrificed by CO2 asphyxiation, the peritoneal cavity was washed with 3×5 ml ice cold PBS and the total lavage was pooled for individual mice. Total cells collected were counted by haemocytometer (Neubauer, Germany).

On to “Met-SDF-1α: Human mature isoform SDF-1α having an additional N-terminal Methionine, SEQ ID NO: 7”, for which the “CMAP latency vs vehicle treated mice” value with sciatic nerve crush mice (100, 30, and 10 μg/kg s.c., day 7 and day 14 after crush) is recorded as “significantly reduced”.

B1: IL-10: control molecule shown to inhibit cytokine release from activated microglia (protein, UniProt P18893 19-178, looked up)
Interleukin-10: SRGQYSREDNNCTHFPVGQSHMLLELRTAFSQVKTFFQTKDQLDNILLTDSLMQDFKGYLGCQALSEMIQFYLVEVMPQAEKHGPEIKEHLNSLGEKLKTLRMRLRRCHRFLPCENKSKAVEQVKSDFNKLQDQGVYKAMNEFDIFINCIEAYMMIKMKS
As for B1, in assay [1], the “levels of IL-6 secretion” value is reported as “down regulated” and the “levels of TNF-α secretion” value was “down regulated”.

B2: SDF-1α variant: Triple mutant of SDF-1α (Lys24Ala, His25Ala, Lys27Ala), SEQ ID NO: 4, reduced GAG binding activity (protein)
chain: KPVSLSYRCPCRFFESHVARANVAALAILNTPNCALQIVARLKNNNRQVCIDPKLKWIQEYLEKALNK
modifications: Human
With B2, the “leukocyte recruitment in the peritoneal cavity” value in assay [2] is given as “did not recruit leukocytes”. Moreover, the “CMAP duration vs vehicle treated mice” value in the assay with sciatic nerve crush mice (30 μg/kg s.c., 7 dpl and 22 dpl) is recorded as “reduced”. In addition, in the assay with sciatic nerve crush mice (30 μg/kg s.c., 22 dpl), the CMAP amplitude result is listed as “significant increase” and the “CMAP latency vs vehicle treated mice” value is listed as “positive effect”. Moreover, the “CMAP latency vs vehicle treated mice” value with sciatic nerve crush mice (30 μg/kg s.c., especially at 7 dpl) is “significantly reduced”. In assay [1], the “levels of IL-6 secretion” value is reported as “significantly decreased” and the “levels of TNF-α secretion” value is reported as “significantly decreased”. Further, the “best concentration for decrease of TNF-α and IL-6 secretion” value in assay [1] (tested 0.001, 0.1 and 10 ng/ml, LPS 5 ng/ml 48 h) came out at 10 ng/mL.

(Values after US20080253996A1, “Use of Sdf-1 for the Treatment and/or Prevention of Neurological Diseases” (LABORATORIES SERONO SA, priority 2005, published 2008).)
